{
  "source": "patent US20240327884A1",
  "about": "“ATP-PRT VARIANT WITH REDUCED FEEDBACK INHIBITION BY HISTIDINE, AND HISTIDINE-PRODUCING STRAIN EXPRESSING SAME” (priority 2020, published 2024)",
  "molecules": {"B1": {"name": "hisG_SDM7: ATP-PRT variant containing H232T, R250H, T252L, E271K and S288P mutations (protein)", "chain": "MTDNTRLRIAMQKSGRLSDDSRELLARCGIKINLHTQRLIAMAENMPIDILRVRDDDIPGLVMDGVVDLGIIGENVLEEELLNRRAQGEDPRYFTLRRLDFGGCRLSLATPVDEAWDGPLSLNGKRIATSYPHLLKRYLDQKGISFKSCLLNGSVEVAPRAGLADAICDLVSTGATLEANGLREVEVIYRSKACLIQRDGEMEESKQQLIDKLLTRIQGVIQARESKYIMMTAPTERLDEVIALLPGAEHPLILPLAGDQQRVAMHMVSSKTLFWETMEKLKALGASPILVLPIEKMME", "modifications": "hisG_SDM7", "notes": "ATP-PRT variant containing H232T, R250H, T252L, E271K and S288P mutations"}},
  "molecular_target": "T1, ATP phosphoribosyltransferase (Escherichia coli, UniProt P60757, E271K/H232T/R250H/S288P/T252L)",
  "T1 construct": "made in house; supernatant of sonicated cells",
  "format": "biochemical, E. coli",
  "conditions": "comparison of hisG_WT, hisG_SDM4, hisG_SDM7",
  "protocol": "Each strain was cultured under conditions of 30° C. and 180 rpm. When the OD600 reached 0.6, ATP-PRT expression was induced with 1 mM IPTG (final concentration) and additional culture was performed for about 4 hours. The cells obtained after culturing were sonicated and centrifuged. The obtained supernatants were used for evaluation of ATP phosphoribosyltransferase activity. […] The protein in each supernatant was quantified to match the concentration, and the enzyme activity was measured after mixing the reactants according to the reaction composition shown in Table 8 below.\nThe activity was measured at 30° C. at a UV wavelength of 290 nm at 2 minute intervals for 30 minutes.",
  "data": [
    {"molecule": "B1", "values": [
      {"measurement": "Resistance to activity inhibition by histidine", "value": "best resistance"}
    ]}
  ]
}
